{
  "source": "paper PMC3508374",
  "about": "(Molecular microbiology, 2012)",
  "data": [
    {"molecular_target": "the molecule itself", "test": "SEC", "values": [
      {"protein": "Bacillus subtilis Fur (ferric uptake regulator), wild type (natural protein, UniProt P54574 1-149, looked up) MENRIDRIKKQLHSSSYKLTPQREATVRVLLENEEDHLSAEDVYLLVKEKSPEIGLATVYRTLELLTELKVVDKINFGDGVSRYDLRKEGAAHFHHHLVCMECGAVDEIEEDLLEDVEEIIERDWKFKIKDHRLTFHGICHRCNGKETE", "stoichiometry N": 2},
      {"protein": "Bacillus subtilis Fur H37A (site 2 mutant) (natural protein, UniProt P54574 1-149, looked up) MENRIDRIKKQLHSSSYKLTPQREATVRVLLENEEDALSAEDVYLLVKEKSPEIGLATVYRTLELLTELKVVDKINFGDGVSRYDLRKEGAAHFHHHLVCMECGAVDEIEEDLLEDVEEIIERDWKFKIKDHRLTFHGICHRCNGKETE", "stoichiometry N": 2},
      {"protein": "Bacillus subtilis Fur H95A (site 2 mutant) (natural protein, UniProt P54574 1-149, looked up) MENRIDRIKKQLHSSSYKLTPQREATVRVLLENEEDHLSAEDVYLLVKEKSPEIGLATVYRTLELLTELKVVDKINFGDGVSRYDLRKEGAAHFAHHLVCMECGAVDEIEEDLLEDVEEIIERDWKFKIKDHRLTFHGICHRCNGKETE", "stoichiometry N": 2},
      {"protein": "Bacillus subtilis Fur H97A (site 2 mutant) (natural protein, UniProt P54574 1-149, looked up) MENRIDRIKKQLHSSSYKLTPQREATVRVLLENEEDHLSAEDVYLLVKEKSPEIGLATVYRTLELLTELKVVDKINFGDGVSRYDLRKEGAAHFHHALVCMECGAVDEIEEDLLEDVEEIIERDWKFKIKDHRLTFHGICHRCNGKETE", "stoichiometry N": 2},
      {"protein": "Bacillus subtilis Fur H96A (site 3 mutant) (natural protein, UniProt P54574 1-149, looked up) MENRIDRIKKQLHSSSYKLTPQREATVRVLLENEEDHLSAEDVYLLVKEKSPEIGLATVYRTLELLTELKVVDKINFGDGVSRYDLRKEGAAHFHAHLVCMECGAVDEIEEDLLEDVEEIIERDWKFKIKDHRLTFHGICHRCNGKETE", "stoichiometry N": 2},
      {"protein": "Bacillus subtilis Fur H132A (site 3 mutant) (natural protein, UniProt P54574 1-149, looked up) MENRIDRIKKQLHSSSYKLTPQREATVRVLLENEEDHLSAEDVYLLVKEKSPEIGLATVYRTLELLTELKVVDKINFGDGVSRYDLRKEGAAHFHHHLVCMECGAVDEIEEDLLEDVEEIIERDWKFKIKDARLTFHGICHRCNGKETE", "stoichiometry N": 2}
    ]}
  ]
}
